# Source: the MegaScale stability set (Tsuboyama et al. 2023)
# B1: HHH_rd1_0493 (parent)
# chain: RDEDEKEKIKEALKRGNEDKAKEIAKRANVSPEEYERLRKEAE
# Variants of: B1
# Assay: folding stability dG (cDNA display proteolysis); higher = more stable
# Conditions: PBS, room temperature
row,Variant,folding stability dG [kcal/mol]
1,RDEDEKEKIKEALKRGNIDKAKEIAKRANVSPEEYERLRKEAE,3.25
2,RDEDEKGKIKEALKRGNEDKAKEIAKRANVSPEEYERLRKEAE,2.62
3,RDEDEKEKIKEALKRGNEDKAKEIAKRANVSREEYERLRKEAE,2.73
4,SDEDEKEKIKEALKRGNEDKAKEIAKRANVSPEEYERLRKEAE,3.15
5,RDEDEKEKIKEALKRGNEDKAKEIAKWANVSPEEYERLRKEAE,2
6,RDEDEKEKIKEALKRGNVDKAKEIAKRANVSPEEYERLRKEAE,3.19
7,RDEDEKEKIKCALKRGNEDKAKEIAKRANVSPEEYERLRKEAE,2.99
8,RDEDEKEKIKEAEKRGNEDKAKEIAKRANVSPEEYERLRKEAE,0.376
9,RDEDEKEKIKEALKRGNEDKAKEIAKRANVSPEEYARLRKEAE,2.31
10,RDEDEKEKIKEALKRGNEDMAKEIAKRANVSPEEYERLRKEAE,3.37
11,RDEDEKEKIKEALKRGNEDKAKEIAKRANKSPEEYERLRKEAE,0.917
12,RDEDEKEKIKEALKRCNEDKAKEIAKRANVSPEEYERLRKEAE,1.76
13,RDEDENEKIKEALKRGNEDKAKEIAKRANVSPEEYERLRKEAE,2.53
14,RDEDEKEKIKEALKRGNEDKAKEIAKRANVSPEEYERPRKEAE,-0.019
15,RDEDEKEKIKEALKRGNEDKAKEIAKRANVSPEEYERLVKEAE,2.65
16,WDEDEKEKIKEALKRGNEDKAKEIAKRANVSPEEYERLRKEAE,3.04
17,RDEDEKEKIKEALKRGNEDKAKEIAKRANVSPEEYERLAKEAE,2.37
18,RDEDEKEKIKEALKRGNEDKAWEIAKRANVSPEEYERLRKEAE,2.75
19,RDWDEKEKIKEALKRGNEDKAKEIAKRANVSPEEYERLRKEAE,3
20,RDEDEKEKIKEALKRGNEDKAKEIAKRANVSPEEYERLRKEME,2.51

row,Variant,folding stability dG [kcal/mol]
1,RDEDEKEKIKEALKRGNEDKAKEIAKRAWVSPEEYERLRKEAE,1.51
2,RDEDEKEKIKEALKRGNEDKAKEIAKRANVSPEEYERLREEAE,2.98
3,RDEDEKEKIKEALKRGNEDKAKEIAKRANVSPEEYERLRSEAE,2.9
4,RDEDEKEKIKEALKRGNEDKAKEIAKKANVSPEEYERLRKEAE,2.93
5,RDEDEKEKIKEALKRGNEDKAKEIAKRANVSDEEYERLRKEAE,3.02
6,RQEDEKEKIKEALKRGNEDKAKEIAKRANVSPEEYERLRKEAE,3.15
7,RDEDEKEKIKEALKRGNEDKAKEIAKRANMSPEEYERLRKEAE,2.89
8,RDEDYKEKIKEALKRGNEDKAKEIAKRANVSPEEYERLRKEAE,4.39
9,RCEDEKEKIKEALKRGNEDKAKEIAKRANVSPEEYERLRKEAE,2.94
10,RDEDEKEKIKEALKRGNEDKAKEIAKRANVSPEEYERLRKERE,1.21
11,RDEDEKEKIYEALKRGNEDKAKEIAKRANVSPEEYERLRKEAE,2.01
12,RDEDEKEKIKLALKRGNEDKAKEIAKRANVSPEEYERLRKEAE,2.71
13,RDEDEKEKIKEALKRGNEDKAKEIAKRANVSPEEYERSRKEAE,0.378
14,RDEDEKEKIKEALKRGNEDKAKEIAKRANVSPYEYERLRKEAE,1.92
15,RDEDEKEKIKEALKRGNRDKAKEIAKRANVSPEEYERLRKEAE,2.15
16,RDEDEKEKIKEALKRGNEDKAKEIAKRANVSSEEYERLRKEAE,2.67
17,RDEDEKEKIKEALWRGNEDKAKEIAKRANVSPEEYERLRKEAE,1.9
18,RDEDEKEKIKELLKRGNEDKAKEIAKRANVSPEEYERLRKEAE,3.02
19,RDEDEKEKIKEALKRGNEQKAKEIAKRANVSPEEYERLRKEAE,3.15
20,RDEDEKEKIKEALKRGNEDKAKEIAKRAYVSPEEYERLRKEAE,1.9

row,Variant,folding stability dG [kcal/mol]
1,RDEDEKEKIKEALKRGNEDIAKEIAKRANVSPEEYERLRKEAE,3.16
2,RDEDEKEKIKEALKRGNEDKAKEIAKRANVSPEEYERLRKEHE,1.55
3,RDEDEKEKIKEALKRGNCDKAKEIAKRANVSPEEYERLRKEAE,2.58
4,RDEDEKEKIKEALKRFNEDKAKEIAKRANVSPEEYERLRKEAE,1.55
5,RDEGEKEKIKEALKRGNEDKAKEIAKRANVSPEEYERLRKEAE,2.8
6,RDEDEKEKIKEALKRGNEDKAKEIAKRANVSPEEYERRRKEAE,0.571
7,RDEDEKEKIKEALKRGNEDKAKEIAKRANVSPEEYERLRKEWE,2.2
8,RDEDEKEKIKEALKRGNEDKAKEIAKRANVSPEGYERLRKEAE,1.06
9,RDEDEKEKIAEALKRGNEDKAKEIAKRANVSPEEYERLRKEAE,1.09
10,RDEDEKEKIKEACKRGNEDKAKEIAKRANVSPEEYERLRKEAE,1.37
11,RDEDEKEKIKEALKRGNEDKAKRIAKRANVSPEEYERLRKEAE,2.39
12,RDEDEKEKIKEALKRGNEDKAKEIAKRQNVSPEEYERLRKEAE,2.23
13,RDEDEKEKIKEALKRGNEDKAKEIAKRANVSPEEYERLRKNAE,1.77
14,RDEDEFEKIKEALKRGNEDKAKEIAKRANVSPEEYERLRKEAE,3.23
15,RDEDEKEKIKEALKRGNEDKAKEIAIRANVSPEEYERLRKEAE,2.91
16,RDEDEKEKIKEALKRGNEDKFKEIAKRANVSPEEYERLRKEAE,0.6
17,RDEDEKEKIKEALKRGNQDKAKEIAKRANVSPEEYERLRKEAE,2.54
18,RDEDEKEKIKEALKRGNEDKAKEIAKRANVSPEMYERLRKEAE,1.72
19,RDEVEKEKIKEALKRGNEDKAKEIAKRANVSPEEYERLRKEAE,2.88
